In US20180235193A1 (MINERVA BIOTECHNOLOGIES, published 2018):

Target: T1, recombinant human NME7-AB (human, UniProt Q9Y5B8 92-376)
T1 construct: Truncated recombinant human NME7, about 33 kDa, active as a monomer; also called rhMNE7-AB
T1 sequence: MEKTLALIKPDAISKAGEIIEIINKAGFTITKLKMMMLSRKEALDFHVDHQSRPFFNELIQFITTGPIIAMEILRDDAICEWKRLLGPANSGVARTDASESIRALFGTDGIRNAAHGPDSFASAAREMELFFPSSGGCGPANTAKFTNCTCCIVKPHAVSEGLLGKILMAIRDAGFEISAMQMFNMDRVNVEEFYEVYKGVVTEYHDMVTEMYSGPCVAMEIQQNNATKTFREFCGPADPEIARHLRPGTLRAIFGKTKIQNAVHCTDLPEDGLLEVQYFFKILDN
Assay: sandwich ELISA, PSMGFR peptide coated on the surface, HRP signal

binding result: binds
B1: MUC1* extracellular domain peptide PSMGFR (peptide)
peptide: GTINVHDVETQFNQYKTEAASRYNLTISDVSVSDVPFPFSAQSGA
notes: Synthetic peptide; also called PSMGFR peptide; MUC1* peptide
